This series concerns the target T1, N-ht-CRP (cAMP receptor protein) (Shewanella oneidensis MR-1) (UniProt Q8EJ49).
T1 sequence: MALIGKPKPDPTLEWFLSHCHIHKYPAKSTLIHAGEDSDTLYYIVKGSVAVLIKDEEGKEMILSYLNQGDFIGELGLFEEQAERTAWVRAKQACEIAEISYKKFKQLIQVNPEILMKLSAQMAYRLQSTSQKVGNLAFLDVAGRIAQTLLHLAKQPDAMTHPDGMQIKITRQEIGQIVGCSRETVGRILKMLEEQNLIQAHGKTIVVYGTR
The series can be described thus: EMSA. To be noted: 10 mM Tris-HCl pH 7.6, 0.5 mM EDTA, 100 mM KCl, 50 ug/mL BSA, 50 ug/mL poly(dI-dC), 50 uM cAMP, 10% glycerol, 2 nM probe, 0-200 ng CRP in 20 uL, on ice 30 min …. On the technique in general: In EMSA bound probe runs differently from free probe, usually more slowly.
Regarding “CCCGCTTAAAGTGACTGATAAATACCAATGACTTAGTTAGCCTTACAGGTGGGATCTAATTCC (double strand) [PBomcA2]”, the binding entry is listed as “no binding”.

With “CCTTGGGGAATTCTATTTCCAGCATCCACTTAAGTCGCTTCTAGTGATCAAATACACAGACATAGAATCTGTTGGCGCTAGAGCATAGCGGTTAAGCAATGCCAAACCTATGCAGGGAAAA (double strand) [PBmtrC2]”, the binding entry is “no binding”.

Turning to “TCCACCTCACTATCTGTTGTTTTTTTGCTCTCAATTTGTTTTTCCCTTGTGGTTTAACTACCTCTTTAGAAATAGAAAGATCCAAGTCACACATTAGCAAAGGCTTAGAAGATTTTAACGGCATGTTGGGTTAGCCTTTCCTTGGGGAATTCTATTTCCAGCATCCACTTAAGTCGCTTCTAGTGATCAAATACACAGACATAGAATCTGTTGGCGCTAGAGCATAGCGGTTAAGCAATGCCAAACCTATGCAGGGAAAA (double strand) [PBmtrC1]”, the binding result is “binds more weakly”.

The record behind these values is publication PMC4417206.
